The supplement of paper PMC7877785
± gives the uncertainty stated by the source.

Experiment: self-splicing fitness, log relative to wild type (ln ratio); higher = more splicing; Tetrahymena group I intron in knt gene, E. coli kanamycin selection, DiMSum; sequences stand for … in CUCUCU…GGAGGGAAAAGUUAUCAGGCAUGCACCUGGUAGCUAGUCUUUAAACCAAUAGAUUGCAUCGGUUUAAAAGGCAAGACCGUCAAAUUGCGGGAAAGGGGUCAACAGCCGUUCAGUACCAAGUCUCAGGGGAAACUUUGAGAUGGCCUUGCAAAGGGUAUGGUAAUAAGCUGACGGACAUGGUCCUAACCACGCAGCCAAGUCCUAAGUCAACAGAUCUUCUGUUGAUAUGGAUGCAGUUCACAGACUAAAUGUCGGUCGGGGAAGAUGUAUUCUUCUCAUAAGAUAUAGUCGGACCUCUCCUUAAUGGGAGCUAGCGGAUGAAGUGAUGCAACACUGGAGCCGCUGGGAACUAAUUUGUAUGCGAAAGUAUAUUGAUUAGUUUUGGAGUACUCGUGGUCG
Outline: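 A randomised library covering all eight P1ex-region intron nucleotides was built with the intron in the knt kanamycin-resistance gene on pET-22b(+) and held in E. coli BL21(DE3). Cells were grown overnight at 37°C or 30°C on LB agar, with or without 25 μg/mL kanamycin, plus 100 μg/mL carbenicillin, 50 μM IPTG and 0.2% rhamnose, and pooled colonies were amplicon-sequenced on an Illumina HiSeq 2500. DiMSum fitness is the error-weighted combination of wild-type-normalised replicate fold changes, kanamycin versus none.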

Sequence | self-splicing fitness (ln) (30 °C) | self-splicing fitness (ln) (37 °C)
UCUUAGCAAUAUUACGUUGG | -2.76 ± 0.18 | -2.65 ± 0.19
GGUGAGCAAUAUUACGUAAG | -3.05 ± 0.45 | -2.22 ± 0.28
GAUCAGCAAUAUUACGCAUC | -4.75 ± 0.31 | -3.11 ± 0.24
GAGAAGCAAUAUUACGAACU | -0.774 ± 0.085 | -0.288 ± 0.092
AACCAGCAAUAUUACGAUUG | -3.19 ± 0.15 | -1.48 ± 0.11
UCAUAGCAAUAUUACGACAG | -1.49 ± 0.13 | -1.26 ± 0.15
UCUCAGCAAUAUUACGCAAC | -4.04 ± 0.39 | 
GGCCAGCAAUAUUACGGCAU | -1.13 ± 0.056 | -0.688 ± 0.066
AUGUAGCAAUAUUACGAUGC | -1.49 ± 0.11 | -0.827 ± 0.16
AACAAGCAAUAUUACGAGAU | -3.08 ± 0.14 | -1.62 ± 0.12
UCAGAGCAAUAUUACGGGCA | -3.11 ± 0.29 | -1.77 ± 0.17
CAGCAGCAAUAUUACGCGGA | -2.58 ± 0.14 | -1.14 ± 0.11
CCGAAGCAAUAUUACGACGG | -3.76 ± 0.27 | -3.11 ± 0.29
CCAAAGCAAUAUUACGGGCC | -2.51 ± 0.46 | -2.23 ± 0.42
GCCCAGCAAUAUUACGGUAA | -0.279 ± 0.06 | 0.44 ± 0.068
ACAAAGCAAUAUUACGCGUC | -4.08 ± 0.31 | -2.09 ± 0.22
AUGAAGCAAUAUUACGCAGC | -2.75 ± 0.24 | -0.841 ± 0.38
UUGAAGCAAUAUUACGUCAU | -1.41 ± 0.056 | -0.306 ± 0.069
UUUGAGCAAUAUUACGCUUA | -3.38 ± 0.36 | -2.07 ± 0.23
AACAAGCAAUAUUACGUUCA | -1.41 ± 0.053 | -0.805 ± 0.063
CGGCAGCAAUAUUACGGGUC | -2.95 ± 0.21 | -1.74 ± 0.22
AGAAAGCAAUAUUACGGCCA | -0.632 ± 0.096 | -0.181 ± 0.13
UACUAGCAAUAUUACGGUUC | -2.29 ± 0.29 | -1.63 ± 0.39
GAUAAGCAAUAUUACGCGCG | -0.359 ± 0.096 | 0.119 ± 0.15
UCUGAGCAAUAUUACGCGAU | -3.14 ± 0.27 | -3.02 ± 0.25

Sequence | self-splicing fitness (ln) (30 °C) | self-splicing fitness (ln) (37 °C)
CAUCAGCAAUAUUACGAUGG | -0.479 ± 0.057 | -0.173 ± 0.074
UUGCAGCAAUAUUACGCCUG | -2.63 ± 0.15 | -1.6 ± 0.19
CGCCAGCAAUAUUACGGUGG | -2.06 ± 0.09 | -2.56 ± 0.18
UCCGAGCAAUAUUACGGUGU | -1.74 ± 0.1 | -2.28 ± 0.17
GAUGAGCAAUAUUACGGAGC | -3.9 ± 0.3 | -0.441 ± 0.13
AUGAAGCAAUAUUACGACAC | 0.0739 ± 0.12 | -0.0401 ± 0.14
UCUAAGCAAUAUUACGUCGC | -2.06 ± 0.23 | -1.22 ± 0.25
CCGCAGCAAUAUUACGAUUG | -0.997 ± 0.085 | -0.816 ± 0.09
CUCCAGCAAUAUUACGGUGU | -4.11 ± 0.15 | -2.28 ± 0.13
GUUCAGCAAUAUUACGCCGA | -2.43 ± 0.31 | -1.34 ± 0.29
UCGAAGCAAUAUUACGAAGC |  | -1.84 ± 0.47
CAGUAGCAAUAUUACGCGUA | -2.89 ± 0.27 | -1.64 ± 0.19
GGUAAGCAAUAUUACGCUUU | -1.88 ± 0.24 | -2.02 ± 0.33
GCGCAGCAAUAUUACGAAGA | -1.64 ± 0.13 | -0.808 ± 0.12
CAGGAGCAAUAUUACGAUCU |  | -2.45 ± 0.45
AUGCAGCAAUAUUACGAGCA | -0.52 ± 0.089 | -0.627 ± 0.097
UUCUAGCAAUAUUACGAGCG | -0.769 ± 0.066 | -0.94 ± 0.072
CUUGAGCAAUAUUACGAUCU |  | -1.04 ± 0.31
AUGCAGCAAUAUUACGACAG | -0.0726 ± 0.086 | -0.339 ± 0.16
GCCCAGCAAUAUUACGUCCC | -1.49 ± 0.17 | 0.384 ± 0.17
CUUAAGCAAUAUUACGAAAU | -3.41 ± 0.24 | -2.48 ± 0.26
GGGAAGCAAUAUUACGGUGA | -1.76 ± 0.3 | -0.447 ± 0.18
ACCAAGCAAUAUUACGCGAA | -3.09 ± 0.13 | -1.65 ± 0.1
CCCAAGCAAUAUUACGUAUU | -3.8 ± 0.16 | -2.7 ± 0.17
GAUUAGCAAUAUUACGGCGU | -0.737 ± 0.068 | -0.796 ± 0.062

Sequence | self-splicing fitness (ln) (30 °C) | self-splicing fitness (ln) (37 °C)
UGAGAGCAAUAUUACGUACA | -2.02 ± 0.21 | -0.955 ± 0.26
GUUAAGCAAUAUUACGCGUA | -1.2 ± 0.17 | -0.453 ± 0.25
CAACAGCAAUAUUACGUGUG | -3.55 ± 0.14 | -2.32 ± 0.11
AUUCAGCAAUAUUACGUCUG | -2.09 ± 0.11 | -1.33 ± 0.11
AAGAAGCAAUAUUACGCCAA | -2.24 ± 0.25 | -1.04 ± 0.21
GAUUAGCAAUAUUACGAGCG | -1.27 ± 0.12 | 0.534 ± 0.12
AACCAGCAAUAUUACGGGUG | -1.14 ± 0.046 | -0.409 ± 0.064
UAUCAGCAAUAUUACGUCAG | -1.42 ± 0.093 | -0.143 ± 0.11
ACAGAGCAAUAUUACGUAAA | -3.71 ± 0.16 | -2.09 ± 0.13
UUACAGCAAUAUUACGGGAG | -1.23 ± 0.071 | -0.858 ± 0.077
GCGGAGCAAUAUUACGGUUC |  | -1.69 ± 0.4
UAAAAGCAAUAUUACGCUUA | -1.53 ± 0.11 | -1.03 ± 0.12
AGCCAGCAAUAUUACGUGCA | -0.689 ± 0.068 | 0.0293 ± 0.087
GCAGAGCAAUAUUACGCGAU | -2.94 ± 0.36 | 
UUGAAGCAAUAUUACGCGCG | 0.0526 ± 0.092 | 0.136 ± 0.12
CUGCAGCAAUAUUACGCUAG | -3.01 ± 0.17 | -2.02 ± 0.24
CCUGAGCAAUAUUACGAGAG | -3.7 ± 0.26 | -0.438 ± 0.1
UUCCAGCAAUAUUACGUAUC | -1.29 ± 0.15 | -2.83 ± 0.34
UAACAGCAAUAUUACGUCAU | -3.81 ± 0.16 | -1.74 ± 0.15
GGAUAGCAAUAUUACGCAAU | -1.83 ± 0.41 | -0.704 ± 0.23
GCUGAGCAAUAUUACGGCAC | -0.439 ± 0.24 | -1.28 ± 0.39
UCACAGCAAUAUUACGUUCG | -1.07 ± 0.061 | -0.209 ± 0.09
GUCAAGCAAUAUUACGGAGA | -3.61 ± 0.26 | -3.41 ± 0.39
GGAUAGCAAUAUUACGGGCA | -2.6 ± 0.26 | -0.844 ± 0.11
AAAUAGCAAUAUUACGAACG | -1.42 ± 0.14 | -0.384 ± 0.16

Sequence | self-splicing fitness (ln) (30 °C) | self-splicing fitness (ln) (37 °C)
GGGUAGCAAUAUUACGUAUC | -1.3 ± 0.21 | -0.963 ± 0.24
AGGCAGCAAUAUUACGGUAA | -2.35 ± 0.088 | -1.75 ± 0.076
GUCGAGCAAUAUUACGGCCU | -2.83 ± 0.34 | 
AAGAAGCAAUAUUACGGCAU | 0.143 ± 0.12 | -0.43 ± 0.16
AGCAAGCAAUAUUACGGACG | -0.404 ± 0.061 | -0.244 ± 0.086
CUAGAGCAAUAUUACGUUCU | -3.79 ± 0.21 | -2.21 ± 0.22
GAUUAGCAAUAUUACGCACA | -0.341 ± 0.17 | -0.721 ± 0.12
UUAGAGCAAUAUUACGGAUA | -2.47 ± 0.31 | 
UACUAGCAAUAUUACGUACA | -1.56 ± 0.12 | -0.448 ± 0.13
CAGGAGCAAUAUUACGUAAU | -3.99 ± 0.47 | -2.78 ± 0.44
AGCAAGCAAUAUUACGUUAA | -3.3 ± 0.17 | -1.68 ± 0.1
UUCUAGCAAUAUUACGAAAA | -1.6 ± 0.14 | -0.631 ± 0.13
UCCGAGCAAUAUUACGGAGG | -2.66 ± 0.16 | -2.65 ± 0.24
CCCGAGCAAUAUUACGGGGA | -3.49 ± 0.21 | -2.14 ± 0.11
AUUGAGCAAUAUUACGGGAA | -3.22 ± 0.37 | -3.86 ± 0.46
GACGAGCAAUAUUACGCAAC | -2.11 ± 0.29 | -2.31 ± 0.42
CAAUAGCAAUAUUACGAACG | -0.128 ± 0.053 | 0.24 ± 0.07
AUGUAGCAAUAUUACGGGAU | -1.9 ± 0.12 | -1.33 ± 0.2
AAGUAGCAAUAUUACGUAAA | -1.09 ± 0.095 | -0.434 ± 0.14
UAAUAGCAAUAUUACGACCU | -1.69 ± 0.15 | -0.4 ± 0.15
GGUAAGCAAUAUUACGUUCU | -1.44 ± 0.12 | -0.359 ± 0.12
ACCCAGCAAUAUUACGCCGU | -1.37 ± 0.064 | -0.415 ± 0.081
